Reference: IntAct's records for PubMed 24510189

B1: mRNA-decapping enzyme 1A (Homo sapiens), Q9NPI6 (parent)
chain: MEALSRAGQEMSLAALKQHDPYITSIADLTGQVALYTFCPKANQWEKTDIEGTLFVYRRSASPYHGFTIVNRLNMHNLVEPVNKDLEFQLHEPFLLYRNASLSIYSIWFYDKNDCHRIAKLMADVVEEETRRSQQAARDKQSPSQANGCSDHRPIDILEMLSRAKDEYERNQMGDSNISSPGLQPSTQLSNLGSTETLEEMPSGSQDKSAPSGHKHLTVEELFGTSLPKEQPAVVGLDSEEMERLPGDASQKEPNSFLPFPFEQLGGAPQSETLGVPSAAHHSVQPEITTPVLITPASITQSNEKHAPTYTIPLSPVLSPTLPAEAPTAQVPPSLPRNSTMMQAVKTTPRQRSPLLNQPVPELSHASLIANQSPFRAPLNVTNTAGTSLPSVDLLQKLRLTPQHDQIQTQPLGKGAMVASFSPAAGQLATPESFIEPPSKTAAARVAASASLSNMVLAPLQSMQQNQDPEVFVQPKVLSSAIPVAGAPLVTATTTAVSSVLLAPSVFQQTVTRSSDLERKASSPSPLTIGTPESQRKPSIILSKSQLQDTLIHLIKNDSSFLSTLHEVYLQVLTKNKDNHNL

Variants of: B1
Conditions: with dcp2_human DCP2, Q8IU60

effect of a mutation on the interaction | Variant
decreasing interaction strength | Q18A;H19A
decreasing interaction strength | S12A;H19A
with no effect | H19A
disrupting interaction strength | S12A;Q18A;H19A

Variants of: B1
Conditions: with pnrc2_human PNRC2, Q9NPJ4
Chain of pnrc2_human PNRC2, Q9NPJ4 (Q9NPJ4 whole entry): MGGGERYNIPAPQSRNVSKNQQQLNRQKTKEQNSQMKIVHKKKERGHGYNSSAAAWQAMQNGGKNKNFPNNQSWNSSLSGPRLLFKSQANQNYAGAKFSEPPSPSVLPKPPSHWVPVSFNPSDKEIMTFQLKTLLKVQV

effect of a mutation on the interaction | Variant
with no effect | S12A;Q18A;H19A
